Experimental data taken from patent publication US20060287236A1.

Target: endogenous peptides
Test: acid eluate of purified heterodimer, Edman pool sequencing

B1: soluble rat FcRn heterodimer (receptor, part only; not given: light chain, UniProt P13599 23-291, looked up, part only)
MHC heavy: AEPRLPLMYHLAAVSDLSTGLPSFWATGWLGAQQYLTYNNLRQEADPCGAWIWENQVSWYWEKETTDLKSKEQLFLEAIRTLENQINGTFTLQGLLGCELAPDNSSLPTAVFALNGEEFMRFNPRTGNWSGEWPETDIVGNLWMKQPEAARKESEFLLTSCPERLLGHLERGRQNLEWKEPPSMRLKARPGNSGSSVLTCAAFSFYPPELKFRFLRNGLASGSGNCSTGPNGDGSFHAWSLLEVKRGDEHHYQCQVEHEGLAQPLTVDL
pmole of amino acids recovered from acid elution, cycle 1: 5.9 pmol
pmole of amino acids recovered from acid elution, cycle 2: 4.7 pmol
pmole of amino acids recovered from acid elution, cycle 3: 0.7 pmol
pmole of amino acids recovered from acid elution, cycle 4: 7.6 pmol
pmole of amino acids recovered from acid elution, cycle 5: 0 pmol
pmole of amino acids recovered from acid elution, cycle 6: 0 pmol
pmole of amino acids recovered from acid elution, cycle 7: 0.2 pmol
pmole of amino acids recovered from acid elution, cycle 8: 0.6 pmol
pmole of amino acids recovered from acid elution, cycle 9: 9.5 pmol
pmole of amino acids recovered from acid elution, cycle 10: 0.3 pmol
